Measurements published in the supplement of paper PMC11246515.
± gives the standard deviation of the averaged measurements.

Experiment: total protein half-life in vivo (active degradation + dilution); higher = more stable protein
[1] = E. coli NCM3722 delta-smpB, growth: N-lim chemostat, doubling time 6 h
[2] = wild type E. coli NCM3722, growth: C-lim chemostat, doubling time 3 h
[3] = wild type E. coli NCM3722, growth: C-lim chemostat, doubling time 6 h
[4] = wild type E. coli NCM3722, growth: C-lim chemostat, doubling time 12 h
[5] = wild type E. coli NCM3722, growth: N-lim chemostat, doubling time 12 h
[6] = wild type E. coli NCM3722, growth: P-lim chemostat, doubling time 6 h
[7] = wild type E. coli NCM3722, growth: P-lim chemostat, doubling time 12 h
[8] = E. coli NCM3722 delta-clpP delta-lon delta-hslV, growth: N-lim chemostat, doubling time 6 h
[9] = E. coli NCM3722 delta-clpP, growth: N-lim chemostat, doubling time 6 h
[10] = E. coli NCM3722 delta-hslV, growth: N-lim chemostat, doubling time 6 h
[11] = E. coli NCM3722 delta-lon, growth: N-lim chemostat, doubling time 6 h
[12] = wild type E. coli NCM3722, growth: N-lim chemostat, doubling time 6 h

| Sequence | total protein half-life in vivo [1] [h] | total protein half-life in vivo [2] [h] | total protein half-life in vivo [3] [h] | total protein half-life in vivo [4] [h] | total protein half-life in vivo [5] [h] | total protein half-life in vivo [6] [h] | total protein half-life in vivo [7] [h] | total protein half-life in vivo [8] [h] | total protein half-life in vivo [9] [h] | total protein half-life in vivo [10] [h] | total protein half-life in vivo [11] [h] | total protein half-life in vivo [12] [h] |
| --- | --- | --- | --- | --- | --- | --- | --- | --- | --- | --- | --- | --- |
| MITHFRQAIEETLPWLSSFGADPAGGMTRLLYSPEWLETQQQFKKRMAASGLETRFDEVGNLYGRLNGTEYPQEVVLSGSHIDTVVNGGNLDGQFGALAAWLAIDWLKTQYGAPLRTVEVVAMAEEEGSRFPYVFWGSKNIFGLANPDDVRNICDAKGNSFVDAMKACGFTLPNAPLTPRQDIKAFVELHIEQGCVLESNGQSIGVVNAIVGQRRYTVTLNGESNHAGTTPMGYRRDTVYAFSRICHQSVEKAKRMGDPLVLTFGKVEPRPNTVNVVPGKTTFTIDCRHTDAAVLRDFTQQLENDMRAICDEMDIGIDIDLWMDEEPVPMNKELVATLTELCEREKLNYRVMHSGAGHDAQIFAPRVPTCMIFIPSINGISHNPAERTNITDLAEGVKTLALMLYQLAWQK | 2.26 ± 0.15 | 2.76 ± 0.21 | 3.86 ± 0.11 | 7.08 ± 1.6 | 3.88 | 3.54 | 6.32 |  |  |  |  |  |
| MITIDGNGAVASVAFRTSEVIAIYPITPSSTMAEQADAWAGNGLKNVWGDTPRVVEMQSEAGAIATVHGALQTGALSTSFTSSQGLLLMIPTLYKLAGELTPFVLHVAARTVATHALSIFGDHSDVMAVRQTGCAMLCAANVQEAQDFALISQIATLKSRVPFIHFFDGFRTSHEINKIVPLADDTILDLMPQVEIDAHRARALNPEHPVIRGTSANPDTYFQSREATNPWYNAVYDHVEQAMNDFSAATGRQYQPFEYYGHPQAERVIILMGSAIGTCEEVVDELLTRGEKVGVLKVRLYRPFSAKHLLQALPGSVRSVAVLDRTKEPGAQAEPLYLDVMTALAEAFNNGERETLPRVIGGRYGLSSKEFGPDCVLAVFAELNAAKPKARFTVGIYDDVTNLSLPLPENTLPNSAKLEALFYGLGSDGSVSATKNNIKIIGNSTPWYAQGYFVYDSKKAGGLTVSHLRVSEQPIRSAYLISQADFVGCHQLQFIDKYQMAERLKPGGIFLLNTPYSADEVWSRLPQEVQAVLNQKKARFYVINAAKIARECGLAARINTVMQMAFFHLTQILPGDSALAELQGAIAKSYSSKGQDLVERNWQALALARESVEEVPLQPVNPHSANRPPVVSDAAPDFVKTVTAAMLAGLGDALPVSALPPDGTWPMGTTRWEKRNIAEEIPIWKEELCTQCNHCVAACPHSAIRAKVVPPEAMENAPASLHSLDVKSRDMRGQKYVLQVAPEDCTGCNLCVEVCPAKDRQNPEIKAINMMSRLEHVEEEKINYDFFLNLPEIDRSKLERIDIRTSQLITPLFEYSGACSGCGETPYIKLLTQLYGDRMLIANATGCSSIYGGNLPSTPYTTDANGRGPAWANSLFEDNAEFGLGFRLTVDQHRVRVLRLLDQFADKIPAELLTALKSDATPEVRREQVAALRQQLNDVAEAHELLRDADALVEKSIWLIGGDGWAYDIGFGGLDHVLSLTENVNILVLDTQCYSNTGGQASKATPLGAVTKFGEHGKRKARKDLGVSMMMYGHVYVAQISLGAQLNQTVKAIQEAEAYPGPSLIIAYSPCEEHGYDLALSHDQMRQLTATGFWPLYRFDPRRADEGKLPLALDSRPPSEAPEETLLHEQRFRRLNSQQPEVAEQLWKDAAADLQKRYDFLAQMAGKAEKSNTD | 2.17 ± 0.18 | 2.14 ± 0.34 | 3.35 ± 0.38 | 5.06 ± 0.26 | 3.64 ± 0.31 | 3.77 ± 0.17 | 6.3 ± 0.33 | 4.62 ± 0.54 | 3.16 ± 0.26 | 2.72 ± 0.21 | 2.87 ± 0.075 | 2.57 ± 0.12 |
| MITIPITLRMLIAKYLCLLKPFWLRKNNKTSVLLIIIILAMILGVVKIQVWLNDWNNDFFNALSQKETDKLWQLVLWFPALLGIFVLISVNKTWLIKLLTIRWREWLTDYYLNRWFADKNYYFTQIYGEHKNTDNPDQRIAEDILLLISKTLSLSFGFIQSLSMLITFTVILWESAGTLSFTVGGTEWNIQGYMVYTVVLIVIGGTLFTHKVGKRIRPLNVEKQRSEATFRTNLVQHNKQAELIALSNAESLQRQELSDNFHTIKENWHRLMNRQRWLDYWQNIYSRSLSVLPYFLLLPQFISGQINLGGLMKSRQAFMLVSNNLSWFIYKYDELAELAAVIDRLYEFHQLTEQRPTNKPKNCQHAVQVADASIRTPDNKIILENLNFHVSPGKWLLLKGYSGAGKTTLLKTLSHCWPWFKGDISSPADSWYVSQTPLIKTGLLKEIICKALPLPVDDKSLSEVLHQVGLGKLAARIHDHDRWGDILSSGEKQRIALARLILRRPKWIFLDETTSHLEEQEAIRLLRLVREKLPTSGVIMVTHQPGVWNLADDICDISAVL |  | 3.2 ± 0.6 | 5.29 ± 0.53 | 11.5 ± 1.1 |  |  |  |  |  |  |  |  |
| MITRIPRSSFSANINNTAQTNEHQTLSELFYKELEDKFSGKELATPLLKSFSENCRQNGRHIFSNKDFVIKFSTSVLQADKKEITIINKNENTTLTQTIAPIFEKYLMEILPQRSDTLDKQELNLKSDRKEKEFPRIKLNGQCYFPGRPQNRIVCRHIAAQYINDIYQNVDYKPHQDDYSSAEKFLTHFNKKCKNQTLALVSSRPEGRCVAACGDFGLVMKAYFDKMESNGISVMAAILLVDNHALTVRLRIKNTTEGCTHYVVSVYDPNVTNDKIRIMSESKENIKHYSLMDFMNVDYSLLKWSNDHVINQSVAIIPALPKEQLLMLKGSVDEITPPLSPATMNLLMAIGQNHQLTQLMIQLQKMPELHRTEMLTAYNSINLPGLYLAINYGNADIVETIFNSLSETGYEGLLSKKNLMHILEAKDKNGFSGLFLAISRKDKNVVTSILNALPKLAATHHLDNEQVYKFLSAKNRTSSHVLYHVMANGDADMLKIVLNALPLLIRTCHLTKEQVLDLLKAKDFYGCPGLYLAMQNGHSDIVKVILEALPSLAQEINISASDIVDLLTAKSLARDTGLFMAMQRGHMNVINTIFNALPTLFNTFKFDKKNMKPLLLANNSNEYPGLFSAIQHKQQNVVETVYLALSDHARLFGFTAEDIMDFWQHKAPQKYSAFELAFEFGHRVIAELILNTLNKMAESFGFTDNPRYIAEKNYMEALLKKASPHTVR |  |  | 5.49 |  |  |  |  |  |  |  |  |  |
| MITYHDAFAKANHYLDDADLPVVITLHGRFSQGWYFCFEAREFLETGDEAARLAGNAPFIIDKDSGEIHSLGTAKPLEEYLQDYEIKKATFGLP |  |  |  |  |  |  |  | 4.62 ± 0.3 |  |  |  |  |
| MIVKKLTLPKDFLWGGAVAAHQVEGGWNKGGKGPSICDVLTGGAHGVPREITKEVLPGKYYPNHEAVDFYGHYKEDIKLFAEMGFKCFRTSIAWTRIFPKGDEAQPNEEGLKFYDDMFDELLKYNIEPVITLSHFEMPLHLVQQYGSWTNRKVVDFFVRFAEVVFERYKHKVKYWMTFNEINNQRNWRAPLFGYCCSGVVYTEHENPEETMYQVLHHQFVASALAVKAARRINPEMKVGCMLAMVPLYPYSCNPDDVMFAQESMRERYVFTDVQLRGYYPSYVLNEWERRGFNIKMEDGDLDVLREGTCDYLGFSYYMTNAVKAEGGTGDAISGFEGSVPNPYVKASDWGWQIDPVGLRYALCELYERYQRPLFIVENGFGAYDKVEEDGSINDDYRIDYLRAHIEEMKKAVTYDGVDLMGYTPWGCIDCVSFTTGQYSKRYGFIYVNKHDDGTGDMSRSRKKSFNWYKEVIASNGEKL | 4.985 ± 0.0067 | 3.08 ± 0.12 | 5.89 ± 0.32 | 10.03 ± 0.031 | 9.46 ± 0.4 | 6.17 ± 0.47 | 11.1 ± 0.41 | 5.79 ± 0.69 | 5.12 ± 0.34 | 5.44 ± 0.26 | 5.46 ± 0.0062 | 4.85 ± 0.075 |
| MIVLPRRLSDEVADRVRALIDEKNLEAGMKLPAERQLAMQLGVSRNSLREALAKLVSEGVLLSRRGGGTFIRWRHDTWSEQNIVQPLKTLMADDPDYSFDILEARYAIEASTAWHAAMRATPGDKEKIQLCFEATLSEDPDIASQADVRFHLAIAEASHNIVLLQTMRGFFDVLQSSVKHSRQRMYLVPPVFSQLTEQHQAVIDAIFAGDADGARKAMMAHLSFVHTTMKRFDEDQARHARITRLPGEHNEHSREKNA [P0ACL7] | 2.04 | 1.28 | 2.86 ± 0.55 | 2.72 | 2.87 |  |  | 5.57 | 2.72 |  |  |  |
| MIVRILLLFIALFTFGVQAQAIKESYAFAVLGEPRYAFNFNHFDYVNPAAPKGGQITLSALGTFDNFNRYALRGNPGARTEQLYDTLFTTSDDEPGSYYPLIAESARYADDYSWVEVAINPRARFHDGSPITARDVEFTFQKFMTEGVPQFRLVYKGTTVKAIAPLTVRIELAKPGKEDMLSLFSLPVFPEKYWKDHKLSDPLATPPLASGPYRVTSWKMGQNIVYSRVKDYWAANLPVNRGRWNFDTIRYDYYLDDNVAFEAFKAGAFDLRMENDAKNWATRYTGKNFDKKYIIKDEQKNESAQDTRWLAFNIQRPVFSDRRVREAITLAFDFEWMNKALFYNAWSRTNSYFQNTEYAARNYPDAAELVLLAPMKKDLPSEVFTQIYQPPVSKGDGYDRDNLLKADKLLNEAGWVLKGQQRVNATTGQPLSFELLLPASSNSQWVLPFQHSLQRLGINMDIRKVDNSQITNRMRSRDYDMMPRVWRAMPWPSSDLQISWSSEYINSTYNAPGVQSPVIDSLINQIIAAQGNKEKLLPLGRALDRVLTWNYYMLPMWYMAEDRLAWWDKFSQPAVRPIYSLGIDTWWYDVNKAAKLPSASKQGE | 5.92 ± 0.24 | 3.0824 ± 5.7e-05 | 6.076 ± 0.038 | 13.3 ± 2.8 | 12.8 ± 0.89 | 6.46 ± 0.14 | 12 ± 1.5 | 6.04 ± 0.17 | 6.38 ± 1.6 | 5.79 ± 0.79 |  | 6.19 ± 0.39 |
| MIVRPQQHWLRRIFVWHGSVLSKISSRLLLNFLFSIAVIFMLPWYTHLGIKFTLAPFSILGVAIAIFLGFRNNAGYARYVEARKLWGQLMIASRSLLREVKTTLPDSASVREFARLQIAFAHCLRMTLRKQPQAEVLAHYLKTEDLQRVLASNSPANRILLIMGEWLAVQRRNGQLSDILFISLNDRLNDISAVLAGCERIAYTPIPFAYTLILHRTVYLFCIMLPFALVVDLHYMTPFISVLISYTFISLDCLAEELEDPFGTENNDLPLDAICNAIEIDLLQMNDEAEIPAKILPDRHYQLT |  |  |  |  | 8.65 | 5.86 ± 0.6 | 11.5 ± 0.23 | 6.05 | 5.43 | 5.52 |  | 3.6 |
| MIWKRHLTLDELNATSDNTMVAHLGIVYTRLGDDVLEAEMPVDTRTHQPFGLLHGGASAALAETLGSMAGFMMTRDGQCVVGTELNATHHRPVSEGKVRGVCQPLHLGRQNQSWEIVVFDEQGRRCCTCRLGTAVLG [P0A8Y8] |  |  |  |  |  |  |  | 6.69 |  |  |  |  |
| MIWKRKITLEALNAMGEGNMVGFLDIRFEHIGDDTLEATMPVDSRTKQPFGLLHGGASVVLAESIGSVAGYLCTEGEQKVVGLEINANHVRSAREGRVRGVCKPLHLGSRHQVWQIEIFDEKGRLCCSSRLTTAIL | 3.73 ± 0.23 | 2.75 ± 0.11 |  |  | 9.08 ± 3.8 | 6.54 | 10.7 | 4.78 | 3.39 | 4.22 | 4.14 | 4.23 |
| MIYLRKANERGHANHGWLDSWHTFSFANYYDPNFMGFSALRVINDDVIEAGQGFGTHPHKDMEILTYVLEGTVEHQDSMGNKEQVPAGEFQIMSAGTGIRHSEYNPSSTERLHLYQIWIMPEENGITPRYEQRRFDAVQGKQLVLSPDARDGSLKVHQDMELYRWALLKDEQSVHQIAAERRVWIQVVKGNVTINGVKASTSDGLAIWDEQAISIHADSDSEVLLFDLPPV | 4.36 ± 0.26 | 2.84 ± 0.096 | 5.31 ± 0.29 | 8.6 ± 2.5 | 7.3 ± 0.36 | 5.54 ± 0.17 | 11.6 ± 0.069 |  | 4.3 ± 0.072 | 4.52 ± 0.68 | 4.67 ± 0.054 | 4.51 ± 0.2 |
